{"source": "the DeepSol protein solubility set"}
{"assay": "soluble on expression in E. coli; label from the status in PepcDB or PDB records"}
{"sequence": "MSLNILIIGPSWVGDMMMSHSLYQQLKIQYPNCNIDVMAPNWCKPLLARMPEVRKAIEMPLGHGAFELGTRYRLGKSLREQYDMAIVLPNSLKSAFIPFFAKIVHRRGWKGESRYILLNDLRANKKDYPMMVQRYVALAFEKDVIPKADDIPVLKPYLTVEPAQQAETLKKFEKQTALLGERPIIGFCPGAEFGPAKRWPHYHYAKLAEMLITQGYAVALFGSAKDEPVGEEIRQALPEELREFCVNLAGKTNLNEAVDLIANCTAVVTNDSGLMHIAAAVNRPLIALYGPTSPQYTPPLSDKATIIRLIEGELIKVRKGDKEGGYHQSLIDITPEMALEKLNELLAKEGGSHHHHHH", "soluble on expression in E. coli": "soluble"}
{"sequence": "MGSDKIHHHHHHMVAQIQELDALHWVKTRSSLDPNQSTFLTWTGKIYAFIPGEKRKLLFKMVGVSVSRCLPTDEGNWDFTSRELTYYLNPENDEILRKWENPWTGETVPVLHVANNPVQGHFQGKFPAQVEGETTTFVFDIFPTYPNPLAEETQFAEYSPYPTYQAAELFKLTVPTADLFNAELPAVSQLRLSWDRIGQWLPWMKMGDRPGNLIYSAFGSKVNGLTELPHILQEEINTRVPLYKQAPKTFSDGEDMTSWLYFQKHFQAYLAGDIFPLPADEEV", "soluble on expression in E. coli": "not soluble"}
{"sequence": "MSQTIGRIEEISFYSASLQDDVTLLVYLPVNYTPLHKHTVVIAQDGRDYFQLGKAHRVIERLRETEEIDRTIIVGIPYKNVHDRKEKYFPNEVKNAAYIRFLAHELAPYIDENYPTYQMGKGRVLIGDSLGGTVSFMTALMYPHTFGKVVMQSPFVDETVMNLAKEFKDPQALELYHVIGTEETAVKRTDGQVSDFVGPNRELNTLLTDRNFITHYEEFEGNHTWKYWQTDLPKAFSHILSMK", "soluble on expression in E. coli": "not soluble"}
{"sequence": "MKRVMFHAKIHRATVTQADLHYVGSVTVDQDLLDAAGILPFEQVDIYDITNGARLTTYALPGERGSGVIGINGAAAHLVKPGDLVILVAYGVFDEEEARNLKPTVVLVDERNRILEVRKG", "soluble on expression in E. coli": "soluble"}
{"sequence": "ATRSPGVVISDDEPGYDLDLFCIPNHYAEDLERVFIPHGLIMDRTERLARDVMKEMGGHHIVALCVLKGGYKFFADLLDYIKALNRNSDRSIPMTVDFIRLKSYCNDQSTGDIKVIGGDDLSTLTGKNVLIVEDIIDTGKTMQTLLSLVRQYNPKMVKVASLLVKRTPRSVGYKPDFVGFEIPDKFVVGYALDYNEYFRDLNHVCVISETGKAKYKA", "soluble on expression in E. coli": "soluble"}
{"sequence": "MGSDKIHHHHHHMRVRSVTEEDYLKIIQELVLYQDYAQLSDIAKSLQVKRQSARDEINHLIDLGMVKKIDRGKYVLTDQGDIEANIFLRKHRTAEVLLSQCVGIEWDAVDREAMGIEHGMTEEIIHRVIERFNAKRCPHGNPIPSPEGYVEKIDDVRITDLNETGDVIISRIIYETDEILNYLYANQILPGAKVKIIRTGFPLQIEKDGRLLSLDPSIAKAIRVSSIK", "soluble on expression in E. coli": "not soluble"}
{"sequence": "MYKILEIADVVKVPPEEFGKDLKETVKKILMEKYEGRLDKDVGFVLSIVDVKDIGEGKVVHGDGSAYHPVVFETLVYIPEMYELIEGEVVDVVEFGSFVRLGPLDGLIHVSQIMDDYVSYDPKREAIIGKETGKVLEIGDYVRARIVAISLKAERKRGSKIALTMRQPYLGKLEWIEEEKAKKQNQE", "soluble on expression in E. coli": "soluble"}
{"sequence": "GMTQPHQIILLAHGSSDARWCETFEKLAEPTVESIENAAIAYMELAEPSLDTIVNRAKGQGVEQFTVVPLFLAAGRHLRKDVPAMIERLEAEHGVTIRLAEPIGKNPRLGLAIRDVVKEELERSEH", "soluble on expression in E. coli": "soluble"}
{"sequence": "AHDNVVIFGDSMVADPLVSEVITGRLSSQPHCPHSPTSYAEIAAKRLGLESRNFSCAGAQVHIGGPFLKTSFIAQIDTAIAAGALDTHTRRVWITQGFNDAWSGHPAAQVVATMSEVIGRIRAHAPNARIQIVGYPQITHQGQLCLVR", "soluble on expression in E. coli": "not soluble"}
{"sequence": "MSLRFGIGYSATMGVRPNMEDVITFQTYPNDQHLFGLFDGHQGNVAAATSAICLHNELLQNAVNAPDDQLPAAITNCYTAVNQKLKMIGTRDGCTAISAFIRKNKCYTVGIGDSRIVLVKKNSSKRLTVDYKPTMRSEYERLRKCGLTVNSEGRIGRKLAVARTLGDFWCEGPGLYVPPDVSSFEINEEEDLALIIACDGVWDVIQDDDAAEIVRNSENAQDAATTLRNVAFALGSKDNISAMIVFFDSKEGHHHHHH", "soluble on expression in E. coli": "soluble"}
{"sequence": "MMGTAWPPPELADVFAQQDIWSAWYAGTPEGLTDAYLNAPNDRPAARRKGLLARLGRWFWGQPTPMGERPSKLHVPLAGAIAAVSANLLFGAPLNLTVDDAATQERLDQLADDTTYAVLREAAEMSAALGGVYLRVVWDQSIQDKPWLVAASPDIAVPEWKWGRLSAVTFWNVIREDANTVVRQLERHEPGWIRHSVWIGSANELGVQMALTDFPETAGLADLVIDGDGIPTGTPKLTAQYIPNLKPNKLWRHLPAAANLGRSDFSGVEALMDALDEAYSDWMRDLRTGKARLLVGTEVLENLGKGQGAHFDIDRELFAPLNLEPGEDKGSVIEQVQFNIRTEEHRALCADLAERIILGAGYSLQTFGVTSEGSGNPTATEIAARERQSLTTRANKTSYWRPALAHLFGVLLEIDRTVFRSQVVPQIPDVEFPDVVTPDPGETARQLNDLNTAGAISTYEKVRRLNPDWRDEQVLEEVARIKADQAEAKPQPTHPARAQEPAGQPEKSPEGSQVNEDVSEPLVAR", "soluble on expression in E. coli": "not soluble"}
{"sequence": "VPKLVDHDERRRSITAAAWRLIAARGIEAANMRDIATEAGYTNGALSHYFAGKDEILRTSYEHISEATDRRIAEALGDATGLDALRILCREVMPINEEQLLEARIAASLWPRAMYDEQMAATNRRTMDNWREQMAIFLEQAREEGSVGDIDVTIVVEQLLNMMMGMQILGVLTPGETSSERQLEMLEQFVAAL", "soluble on expression in E. coli": "soluble"}
{"sequence": "MAHHHHHHMLRIGRTLLAEVTTINSTTASVSGRLIRIRKKSKWIDRRSTRVPHNGKDIWYFGDQPSCALCHIRFRYKQDYEAHKESELHVNRLRWVETMNWWRETGEPAYLKASNEQWEWFEQHVLPTKAQEMGCTLDEARRVYRQAIMTETPTWHRPLQCPTVKQEVQEPRDQRWPASPKW", "soluble on expression in E. coli": "not soluble"}
{"sequence": "MGSDKIHHHHHHMLEGIFDINHVFDEEGIKTLKRFGWDGSVAVQNHNEYSEEKINTAVEYGENCEFKVYSGVKISTKNQNEMEKAVKKYRNKVDILLVEGGDVKINRRVLEMNDVDILSTPELNRMDNGLDHILARLGSTNRVAVELNFGNLLKSKNYDRSKILWAFQRNLKLSKKYDTPVVISSGANDIYGIKAPGDLRGFLNTVADPLYSKKIIETTSKIIDYRLYLKNKNVLMPGLEIVEE", "soluble on expression in E. coli": "not soluble"}
{"sequence": "MGSSHHHHHHSSGLEVLFQGPLHMGIKYQKIGDVVIVKKELSEDEIREIVKRTKCKAILLYTTQITGEFRTPHVKILYGKETETIHKEYGCLFKLDVAKIMWSQGNIEERKRMAFISNENEVVVDMFAGIGYFTIPLAKYSKPKLVYAIEKNPTAYHYLCENIKLNKLNNVIPILADNRDVELKDVADRVIMGYVHKTHKFLDKTFEFLKDRGVIHYHETVAEKIMYERPIERLKFYAEKNGYKLIDYEVRKIKKYAPGVWHVVVDAKFERI", "soluble on expression in E. coli": "soluble"}
{"sequence": "MGSDKIHHHHHHMNSRTSFVSPDDRFSMVYFKMEHEGCWTGITKEHNIAIHTLKIIPLKDRNNIYGLFEIRAQGKKEFRDFLRRINREKTIHRVMAYSPSELRKNVYFIDLYEVYGGMIEGILNDYQSIFEYDVVRRGVEEKYAIIPSDRVLELKNSINGLGKIYQFKARCIKNFYYAFSPFLSYTPSEMQIIAEAVSRGYYSIPRHVGIRDLAEYFGMSKSTVQEYLRKAEQKTMNNLKLLKLMNEMKE", "soluble on expression in E. coli": "not soluble"}
{"sequence": "MVKQIESKTAFQEALDAAGDKLVVVDFSATWCGPCKMIKPFFHSLSEKYSNVIFLEVDVDDCQDVASECEVKCMPTFQFFKKGQKVGEFSGANKEKLEATINELV", "soluble on expression in E. coli": "soluble"}
{"sequence": "MAHHHHHHMLPGDVVEVLVTNSHGTQDADDVERLCKALHLDPCAWCELHRSPFVPEDNFPPWLPLQKPLTLGQLLSAYVDISSSSYLLHQSFFESLFRIYSDSKPSSASSTSTTPSPDPEKVRLLEACASSETGPQLLRLLSKSSTPLCYPSLVDVLEVFSFVNIPLDRLLEVSGPLQTRRYSLANWIPATLPLSPLQLCMREVCARRSANLPAATPVGADAQRVADMLNRAAQDASRDHGNFFFGHTSHPLCCAARSMTRSAAGAGQRGMYVSFSLFGNSLFARQLQAGCTALCNPAQAKSLCSPLFLIGCGTGIAPLIAAVTQLMLRRACTAAGSAPFPCWVFYGARTKAELLYDEVLREALRTGAIAKYEYALSREEDNEKQGRYVTDLVKQNRLMVTDSLRNEGQLFVCGPAKALVSVRQLVKCDLLAEPDDDDSVQEQRLLVLEDRGRLNFDIWSTGNIFE", "soluble on expression in E. coli": "not soluble"}
{"sequence": "MGSDKIHHHHHHMSWPLDDETASPHFSIRCLEEPMLINADFSRRAIVTPHEYQWVASPQGGVERVMLDRVGAEKARATSIVRYAPGSHFPRHQHPAGEEILVLSGTFSDEGGHYPAGWYLRNPPGSCHQPSSREGAMIFVKLRQMPLHEARRVRVDTRDPAAWRRQNGREVCPLFADDAEQVCLHRMAPNDALVAAQGDGAELLVLTGAVVAEGEIYGRGSWIRVPADDSLHVVAASQGATVYLKTGLPVAIGAEV", "soluble on expression in E. coli": "not soluble"}
{"sequence": "MAHHHHHHMPCEGCGLSEAAMQCPTCKKLDMPPSYFCSQACFKEHWADHKLKHTQSALPTIPTMTEAAMNAFNFTGSLRPGRITPRRAVPSHIPRPDYANRADGLSPAEEKDRGAKVRVYNLQSLHDDSKETADIQRVKKVCRLSREVLDIATAAVRPGVTTDEIDRIVHEATIERDMYPSPLNYYNFPKSVCTSVNEVICHGIPDSRGLEEGDIVNIDVSSYLNGFHGDLNETVFVGKPDADSVRLVHAAYESLYAGIKVVKPEALYKHVGDAIEACAVQYGCSVVRAYTGHGVGHLFHTAPTVCHYANNKSLGMMRPGHVFTIEPMINLGTWQDVTWPDNWTSTTRDGKRSAQFEHTMVVTNDGAELFTDWTDGIPTYQKQLEGWNIPLPSPSNGVAH", "soluble on expression in E. coli": "not soluble"}
{"sequence": "SAVAIPQATSLTNLVFLTKLIPRGSFTTILPKHHRKPIFVFSLQTQFSSPVTTLTSKNPKDDEQQQKLSFTLNYLIDSCGLSPDSATVASRKLLLDSPERPNTVLNLLRDHGFTTAQISSLVKKRPVLLLANAESVLLPKLSFFLSIGVSKSLLARTLASDPTILTRSLVNQLIPSYNFLKSVLDSDEKIVAALRRTTWVFLEDHTKNLVPNINYMAETGVPEKCIKLLLTHFPEAVMQKNHEFQAIAKQAQEMGFNPQKSTFVLAIHALSGKGNKSIWDKCFEVYQRWGWSEDDIMCAFKKHPHCMMLSERKINRTMEYFVNEMNMAPRSIAQCPVVLFFSLEKRIIPRCSVTKVLVSNGLVKEDWSLTSLLVPVEKVFLEKLVIKYEEELPELMNLYLGCTKL", "soluble on expression in E. coli": "soluble"}
{"sequence": "MAHHHHHHMAAADQLRYAAQMIELARSEEREDGNPLTAARCYTTAMEVIASEASKRAAMIESNEARRFFLFQVRSKLEMYHERAELLLQVANGSGLLDKPSLSNGDASALQTNYPPALFASAVANEKSSSGNGGVASCSTGGGVSVLGIPLQPQQMAPSAPPTQTQSSYGDFKEPPMSCYLKPDDDATAEPPPVTPELNLDELMKNLGAPPEL", "soluble on expression in E. coli": "not soluble"}
{"sequence": "MEETVDQAANSRTISLPISRVRLIMKSSPDVSCINQDALFLTTKATELFVQHLALSSYENGPSKDTNTLSYSDLADTVEETETFQFLTDILPKKILARDYLKTLEEMEKEDDNM", "soluble on expression in E. coli": "not soluble"}
{"sequence": "MALEGLKTSCCRPNEPLTTNSMAIAQEKAQHQQRSSLRNMTRPMIGRSGPKEASMTTRTRRETIVFAHPFRLRGIDRELPAGAYDVITDEELIEGLSFPVFRRVATMITVPCAPPRQSAVEMLTIEPDALRDARQADSSTSRA", "soluble on expression in E. coli": "not soluble"}
